Experimental findings from article PMC5473912, “Regulation of sub-compartmental targeting and folding properties of the Prion-like protein Shadoo” (Scientific Reports, 2017) are described below.

The target of the test is T1, Calreticulin (CRT), endogenous mouse (mouse (endogenous in GT1), UniProt P14211 18-416).
T1 construct: Calreticulin (CRT), mouse, immunoprecipitated with anti-CRT antibody; also called ER chaperone Calreticulin; source: endogenous, GT1 lysate
T1 sequence (looked up): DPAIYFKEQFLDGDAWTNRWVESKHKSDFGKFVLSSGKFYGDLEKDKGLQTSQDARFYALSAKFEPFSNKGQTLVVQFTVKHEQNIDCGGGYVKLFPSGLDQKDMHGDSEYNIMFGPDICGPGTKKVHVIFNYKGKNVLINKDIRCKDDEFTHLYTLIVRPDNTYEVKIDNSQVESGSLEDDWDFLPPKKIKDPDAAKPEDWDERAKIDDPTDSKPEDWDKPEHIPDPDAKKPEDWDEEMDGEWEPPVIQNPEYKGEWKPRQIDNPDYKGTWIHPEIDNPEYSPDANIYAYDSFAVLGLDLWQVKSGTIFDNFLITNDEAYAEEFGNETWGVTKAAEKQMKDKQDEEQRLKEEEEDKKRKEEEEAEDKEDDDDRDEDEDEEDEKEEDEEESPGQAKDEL
Nature of the test: co-IP; Calreticulin immunoprecipitated from GT1 lysates (JS buffer, 1% TX-100, 150 mM NaCl, pH 7.5) with anti-CRT Ab and protein A-Sepharose overnight at 4 °C; Sho revealed by Western blot with SPRN-R12; cells under control conditions or cholesterol depletion (βCD 10 mM, 1 h). The settings on record: partners not purified. A general note: Immunoblotting shows a protein as a band on a membrane.

B1: Shadoo (Sho), mature fully glycosylated ~22 kDa isoform, endogenous mouse (natural protein, mouse (endogenous in GT1), UniProt Q8BWU1 25-122, looked up)
chain: KGGRGGARGSARGVRGGARGASRVRVRPAPRYGSSLRVAAAGAAAGAAAGVAAGLATGSGWRRTSGPGELGLEDDENGAMGGNGTDRGVYSYWAWTSG
modifications: fully N-glycosylated (complex-glycosylated)
notes: Shadoo (Sho, SPRN), mouse, the mature fully glycosylated isoform that migrates at ~22 kDa; also called mature Sho; mature glycosylated Sho; source: endogenous, GT1 lysate
Turning to B1, the “fold increase in the immunocomplex upon cholesterol depletion against control” value is approximately 3 fold.
